Target: the molecule itself
Experiment: aggregation kinetics by turbidity

B1: HET-s prion forming domain (PFD), HET-s(218-289) (domain or fragment, Podospora anserina, UniProt Q03689 218-289, looked up)
chain: KIDAIVGRNSAKDIRTEERARVQLGNVVTAAALHGGIRISDQTTNSVETVVGKGESRVLIGNEYGGKGFWDN
notes: also called HET-s PFD
binding result: binds

Reference: article PMC2774669 (Microbial Cell Factories, 2009)
